# “Also recorded” adds a separate entry of the source. The star is where a group is joined. Biotin = O=C1N[C@H]2[C@H](CS[C@H]2CCCCC(=O)*)N1
# Experiments:
# [1] = Macro-scale scaffold formation upon exposure to PBS / neutral pH buffer; assay type: physicochemical; conditions: upon exposure to PBS (1×) / neutral pH buffer
# Excerpt: The tested peptides solutions appearance ranged from peptides giving clear liquid is solutions (e.g. 4, B15, B19, B25, B28, 30) to samples which become opaque in 1 to 7 days after dissolution (e.g. B3, B17, B22, B24, B27, 31) as shown in FIG. 2a (I). Most of the liquid solutions increased in viscosity over the first week after dissolution, however after ten days in water no appreciable changes happened at the macroscale.
# (§1) Nonetheless, keeping constant the observation time, the storage moduli of peptide solutions previously dissolved (the day before) at 3% w/v were measured. Measurements were obtained of these peptide solutions, further diluted to 1% w/v at the same day of the experiment (unless otherwise specified), and, after addition of PBS, of the formed scaffolds.
# [2] = test system: human Neural Stem Cells (hNSCs); assay: Phase contrast imaging of hNSC morphology on scaffolds; assay type: cell-based; conditions: 7 days in vitro
# Protocol: In vitro tests were performed following a previously adopted methodology (5). Briefly, cells (at a concentration of 6×10^4 cells/cm^2) were seeded on the top-surface of each assembled scaffold previously assembled into 96 multiwells. Initially, cells were cultured with basal medium supplemented with βFGF (10 ng/ml), added to enhance neuronal progeny differentiation. At 3 days in vitro (DIV), βFGF medium was replaced with Leukemia Inhibitory Factor (LIF, Chemicon) (20 ng/ml) and Brain Derived Neurotrophic Factor (BDNF, Peprotech) (20 ng/ml). Fresh medium was added every three days. Positive and negative controls consisted of CULTREX-BME® substrate (R&D systems) (1:100 dilution in basal medium) and untreated bottom well surfaces respectively.
# To assess the potential of the proposed SAPs for cell cultures and, more generally, for regenerative medicine, a two-dimensional cell culture protocol already developed for RADA16-I-like peptides was adapted (5). Briefly, human Neural Stem Cells (hNSCs), mechanically dissociated 1 day before plating, were seeded and cultured for one week in vitro over self-assembled scaffolds of B3, 4, B15, B17, B19, B22, B24, B25, B27, B28, 30, 31 and over non-coated tissue culture plastic wells (negative control).
# [3] = Rheological tests (storage modulus G′, cone-and-plate rheometer); assay type: physicochemical
# Protocol: (§2) Rheological properties were determined for the peptides of the invention, using a controlled stress TA Instruments AR-2000ex rheometer (TAInstruments). A cone-and-plate geometry (acrylic cone diameter, 20 mm; angle, 1°; truncation gap 34 μm) was used. All measurements were obtained at a constant monitored temperature of 25° C. Preliminary strain sweeps were performed for each sample to define the linear viscoelastic region, thus ensuring that moduli were independent of strain. Time sweeps, after addition of PBS (1×) were recorded at constant angular frequency (ω=1 Hz). Frequency sweeps, both for peptide water solutions and for self-assembled scaffolds, were performed with the instrument in oscillatory mode at controlled strain of 1%. Final: onset point of rupture was calculated by linear interpolation and subsequent determination of the intersection of the G′ modes in the linear region and at material rupture respectively. G′ values were averaged in the 1-100 Hz region and between n=3 independent replicates. During self-healing tests the self-assembled scaffold was torn by applying a strain sweep (0.01%-1000% strain range) at 1 Hz oscillatory frequency. G′ values were is recorded in frequency sweep mode (at 1% strain) or, in time sweep mode (at 1 Hz and at 1% strain), before and after the strain sweep step, subsequent observations were performed every half hour or, in case of time sweep test, every 30 seconds. In all of the SAPs the difference between the storage moduli measured before and after PBS addition spanned from two to four orders of magnitude, proving the dramatic biomechanical changes taking place during scaffold gelation. Peptide B3 (1%) yielded a solid stiff scaffold (G′=2917 Pa), supporting the idea that ionic charges may screen the electrostatic repulsions given by positively charged lysine residues and speed up the spontaneous ongoing self-assembling process, on its turn giving an already viscous (G′=67 Pa) and opaque solution at day 1. Among the peptides giving soft scaffold (100 Pa-1000 Pa range) peptides 4, B19, B25, B28 and 30 were included. On the opposite side, SAPs yielding solid stiff scaffolds are B15, B22, B24, B27 and 31 (5000 Pa-9000 Pa range).
# The mechanical properties of the synthesized peptides were tested with a cone-and-plate rheometer. Firstly, the G′ dependence of peptide water solutions on concentration increments, and consequently aggregation kinetics, was assessed as shown in FIG. 2b.
# as §1
# [4] = Self-healing tests of assembled scaffolds after mechanical rupture; assay type: physicochemical; conditions: recovery of scaffold stiffness after mechanical rupture
# Protocol: as §2
# Solid scaffolds were obtained via addition of PBS (1×) in a cone-and-plate rheometer; we measured the storage modulus, the samples were subjected to a strain sweep (0.01% to 1000%) until and far beyond rupture occurred (i.e. is monitoring the sudden drop of G′ value). Samples were then left in place (keeping them hydrated with PBS) and their G′ were measured every 30 minutes via frequency sweep tests in the range of 0.1 Hz to 60 Hz. As a negative control KLD-12, a well-known SAP, was tested (4, 6). […] In FIG. 6b peptide B25 (3% w/v concentration) was assessed for self-healing in a time sweep mode, every 30 seconds, at 1 Hz and at 1% strain. Values of G′ recovered after 100 minutes (1000 Pa) and steadily plateaued over time. For peptides B3, B22, B25 and B27 full recovery was obtained at different time intervals after rupture, ranging from 60′ to 240′. Similar results were confirmed by multiple independent experiments, but at different time ranges, for all of the self-assembling peptides except for B19 and B28.
# Samples were checked for rupture by tilting. After a maximum of four hours all of the samples returned to their solidified gel appearance. This healing could be repeated at will.
Substance,solid scaffold / hydrogel formation [1],other results
Biotin-GGGAFASTKA-NH2 [B33],yielded solid scaffolds,
Biot-GGGPFSSTTK-CONH2 (Biotin-GGGPFSSTTK-NH2; SMILES C[C@@H](O)[C@H](NC(=O)[C@H](CO)NC(=O)[C@H](CO)NC(=O)[C@H](Cc1ccccc1)NC(=O)[C@@H]1CCCN1C(=O)CNC(=O)CNC(=O)CNC(=O)CCCC[C@@H]1SC[C@@H]2NC(=O)N[C@@H]21)C(=O)N[C@H](C(=O)N[C@@H](CCCCN)C(N)=O)[C@@H](C)O) [B67],self-assembled giving a hydrogel upon exposure to PBS,
Ac-F-GGG-AFASTKT-GIKVAV-CONH2 (Ac-FGGGAFASTKTGIKVAV-NH2) [compound 59],yielded solid scaffolds,
Ac-WGGGAFASTKT-CONH2 (Ac-WGGGAFASTKT-NH2) [compound 30],yielded solid scaffolds,cell morphology / degree of spreading [2]: single spherical cells
Biotin-GGGAWASTKT-NH2 [B32],yielded solid scaffolds,
Biot-GGGPFSSTKT-CONH2 (Biotin-GGGPFSSTKT-NH2; SMILES C[C@@H](O)[C@H](NC(=O)[C@H](CCCCN)NC(=O)[C@@H](NC(=O)[C@H](CO)NC(=O)[C@H](CO)NC(=O)[C@H](Cc1ccccc1)NC(=O)[C@@H]1CCCN1C(=O)CNC(=O)CNC(=O)CNC(=O)CCCC[C@@H]1SC[C@@H]2NC(=O)N[C@@H]21)[C@@H](C)O)C(N)=O) [peptide B3],shifting to solid scaffold when exposed to neutral pH buffer; also recorded: yielded solid scaffolds,"storage modulus G′ of assembled scaffold (G′ post-assembling) ([3]; after PBS (1×) addition, averaged in 1-100 Hz range, 25° C., B3 at 1%): 2917 Pa; time for G′ of peptide solution to reach a plateau ([3]; dissolved at 3% concentration in water): 2 days; storage modulus G′ of peptide solution (pre-assembling) ([3]; water solution at day 1, 1%, before PBS): 67 Pa; self-healing property [4]: self-healing property has been seen; cell morphology / degree of spreading [2]: branched cells"
"Ac-GGGPFSSTKT-CONH2 (Ac-GGGPFSSTKT-NH2) [peptide 2, biotin-deleted version of B3 that formed no scaffold]",prevented any scaffold formation,
Biot-GGGKFSSTPT-CONH2 (Biotin-GGGKFSSTPT-NH2; SMILES C[C@@H](O)[C@H](NC(=O)[C@@H]1CCCN1C(=O)[C@@H](NC(=O)[C@H](CO)NC(=O)[C@H](CO)NC(=O)[C@H](Cc1ccccc1)NC(=O)[C@H](CCCCN)NC(=O)CNC(=O)CNC(=O)CNC(=O)CCCC[C@@H]1SC[C@@H]2NC(=O)N[C@@H]21)[C@@H](C)O)C(N)=O) [B64],yielded solid scaffolds; also recorded: self-assembled giving a hydrogel upon exposure to PBS,
Biot-GGGPFSETKT-CONH2 (Biotin-GGGPFSETKT-NH2; SMILES C[C@@H](O)[C@H](NC(=O)[C@H](CCCCN)NC(=O)[C@@H](NC(=O)[C@H](CCC(=O)O)NC(=O)[C@H](CO)NC(=O)[C@H](Cc1ccccc1)NC(=O)[C@@H]1CCCN1C(=O)CNC(=O)CNC(=O)CNC(=O)CCCC[C@@H]1SC[C@@H]2NC(=O)N[C@@H]21)[C@@H](C)O)C(N)=O) [peptide B17],yielded solid scaffolds,self-healing property [4]: self-healing property has been seen; cell morphology / degree of spreading [2]: proliferated cell clusters
Ac-F-GGG-AFSSTKT-CONH2 (Ac-FGGGAFSSTKT-NH2) [compound 61],yielded solid scaffolds,
Biotin-G-AFASTKT-CONH2 [B50],yielded solid scaffolds,
Ac-FGGG-PFSSTKT-CONH2 (Ac-FGGGPFSSTKT-NH2) [compound 37],yielded solid scaffolds,
Biot-GGGPWSSTKT-CONH2 (Biotin-GGGPWSSTKT-NH2; SMILES C[C@@H](O)[C@H](NC(=O)[C@H](CCCCN)NC(=O)[C@@H](NC(=O)[C@H](CO)NC(=O)[C@H](CO)NC(=O)[C@H](Cc1c[nH]c2ccccc12)NC(=O)[C@@H]1CCCN1C(=O)CNC(=O)CNC(=O)CNC(=O)CCCC[C@@H]1SC[C@@H]2NC(=O)N[C@@H]21)[C@@H](C)O)C(N)=O) [B27],yielded solid scaffolds,self-healing property [4]: self-healing property has been seen
Biot-GGGGGPFSSTKT-CONH2 (Biotin-GGGGGPFSSTKT-NH2; SMILES C[C@@H](O)[C@H](NC(=O)[C@H](CCCCN)NC(=O)[C@@H](NC(=O)[C@H](CO)NC(=O)[C@H](CO)NC(=O)[C@H](Cc1ccccc1)NC(=O)[C@@H]1CCCN1C(=O)CNC(=O)CNC(=O)CNC(=O)CNC(=O)CNC(=O)CCCC[C@@H]1SC[C@@H]2NC(=O)N[C@@H]21)[C@@H](C)O)C(N)=O) [peptide B25],yielded solid scaffolds,self-healing property [4]: self-healing property has been seen
"Biot-PFSSTKT-CONH2 (Biotin-PFSSTKT-NH2; SMILES C[C@@H](O)[C@H](NC(=O)[C@H](CCCCN)NC(=O)[C@@H](NC(=O)[C@H](CO)NC(=O)[C@H](CO)NC(=O)[C@H](Cc1ccccc1)NC(=O)[C@@H]1CCCN1C(=O)CCCC[C@@H]1SC[C@@H]2NC(=O)N[C@@H]21)[C@@H](C)O)C(N)=O) [peptide B7, non-assembling control peptide]",not give a solid scaffold,
Ac-Y-GGG-PFSSTKT-CONH2 (Ac-YGGGPFSSTKT-NH2) [peptide 60],yielded solid scaffolds,
Biot-GGGPFSSKTT-CONH2 (Biotin-GGGPFSSKTT-NH2; SMILES C[C@@H](O)[C@H](NC(=O)[C@@H](NC(=O)[C@H](CCCCN)NC(=O)[C@H](CO)NC(=O)[C@H](CO)NC(=O)[C@H](Cc1ccccc1)NC(=O)[C@@H]1CCCN1C(=O)CNC(=O)CNC(=O)CNC(=O)CCCC[C@@H]1SC[C@@H]2NC(=O)N[C@@H]21)[C@@H](C)O)C(N)=O) [B66],self-assembled giving a hydrogel upon exposure to PBS,
Biotin-GGGGG-AFASTKT-CONH2 [B51],yielded solid scaffolds,
Biotin-GGGPFSSTKTP-NH2 [B34],yielded solid scaffolds,
Biot-GGGPKSSTFT-CONH2 (Biotin-GGGPKSSTFT-NH2; SMILES C[C@@H](O)[C@H](NC(=O)[C@H](Cc1ccccc1)NC(=O)[C@@H](NC(=O)[C@H](CO)NC(=O)[C@H](CO)NC(=O)[C@H](CCCCN)NC(=O)[C@@H]1CCCN1C(=O)CNC(=O)CNC(=O)CNC(=O)CCCC[C@@H]1SC[C@@H]2NC(=O)N[C@@H]21)[C@@H](C)O)C(N)=O) [B65],yielded solid scaffolds; also recorded: self-assembled giving a hydrogel upon exposure to PBS,
